Patent publication US20230357420A1 (VILLARIS THERAPEUTICS, published 2023)
Where a chain is given by its changes, count along the chain named.

T1: Human CD122 His tagged (human, UniProt P14784 27-240)
T1 construct: also called hCD122; monomeric antigen; not shown: His tag
T1 sequence: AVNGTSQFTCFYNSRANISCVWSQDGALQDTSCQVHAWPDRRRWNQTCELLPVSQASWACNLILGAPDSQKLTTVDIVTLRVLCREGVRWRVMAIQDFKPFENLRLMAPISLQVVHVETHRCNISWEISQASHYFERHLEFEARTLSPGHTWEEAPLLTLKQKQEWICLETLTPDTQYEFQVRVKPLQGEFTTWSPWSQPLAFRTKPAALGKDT

T2: Rhesus CD122 His tag (rhesus monkey, UniProt Q38J85 27-240 (cynomolgus entry))
T2 construct: also called rhCD122; cynomolgus and/or rhesus monkey CD122 His tag; not shown: His tag
T2 sequence: T1 sequence with Q7R, A66T, T74A, L83M, V92M, E127K, L158M

T3: Human BCAM protein (human, UniProt P50895 32-547, limits assumed)
T3 construct: Protein used in ELISA; also called BCAM (ELISA antigen)
T3 sequence: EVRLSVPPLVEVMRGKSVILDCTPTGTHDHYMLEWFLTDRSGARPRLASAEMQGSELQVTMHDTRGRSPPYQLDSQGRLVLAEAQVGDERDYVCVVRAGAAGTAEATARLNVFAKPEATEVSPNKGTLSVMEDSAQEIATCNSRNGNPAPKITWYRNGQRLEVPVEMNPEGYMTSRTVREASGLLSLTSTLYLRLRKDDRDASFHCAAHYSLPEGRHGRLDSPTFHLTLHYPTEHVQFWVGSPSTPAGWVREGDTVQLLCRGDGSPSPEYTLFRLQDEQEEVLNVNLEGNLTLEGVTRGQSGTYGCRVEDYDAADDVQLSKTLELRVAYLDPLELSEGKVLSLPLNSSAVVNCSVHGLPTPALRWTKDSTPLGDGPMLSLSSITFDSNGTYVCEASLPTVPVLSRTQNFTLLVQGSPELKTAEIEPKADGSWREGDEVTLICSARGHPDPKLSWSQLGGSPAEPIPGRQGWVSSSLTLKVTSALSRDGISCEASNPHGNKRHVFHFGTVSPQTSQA

T4: Human CILP2 protein (human, UniProt Q8IUL8 21-1156, limits assumed)
T4 construct: also called cartilage intermediate layer protein 2
T4 sequence (looked up): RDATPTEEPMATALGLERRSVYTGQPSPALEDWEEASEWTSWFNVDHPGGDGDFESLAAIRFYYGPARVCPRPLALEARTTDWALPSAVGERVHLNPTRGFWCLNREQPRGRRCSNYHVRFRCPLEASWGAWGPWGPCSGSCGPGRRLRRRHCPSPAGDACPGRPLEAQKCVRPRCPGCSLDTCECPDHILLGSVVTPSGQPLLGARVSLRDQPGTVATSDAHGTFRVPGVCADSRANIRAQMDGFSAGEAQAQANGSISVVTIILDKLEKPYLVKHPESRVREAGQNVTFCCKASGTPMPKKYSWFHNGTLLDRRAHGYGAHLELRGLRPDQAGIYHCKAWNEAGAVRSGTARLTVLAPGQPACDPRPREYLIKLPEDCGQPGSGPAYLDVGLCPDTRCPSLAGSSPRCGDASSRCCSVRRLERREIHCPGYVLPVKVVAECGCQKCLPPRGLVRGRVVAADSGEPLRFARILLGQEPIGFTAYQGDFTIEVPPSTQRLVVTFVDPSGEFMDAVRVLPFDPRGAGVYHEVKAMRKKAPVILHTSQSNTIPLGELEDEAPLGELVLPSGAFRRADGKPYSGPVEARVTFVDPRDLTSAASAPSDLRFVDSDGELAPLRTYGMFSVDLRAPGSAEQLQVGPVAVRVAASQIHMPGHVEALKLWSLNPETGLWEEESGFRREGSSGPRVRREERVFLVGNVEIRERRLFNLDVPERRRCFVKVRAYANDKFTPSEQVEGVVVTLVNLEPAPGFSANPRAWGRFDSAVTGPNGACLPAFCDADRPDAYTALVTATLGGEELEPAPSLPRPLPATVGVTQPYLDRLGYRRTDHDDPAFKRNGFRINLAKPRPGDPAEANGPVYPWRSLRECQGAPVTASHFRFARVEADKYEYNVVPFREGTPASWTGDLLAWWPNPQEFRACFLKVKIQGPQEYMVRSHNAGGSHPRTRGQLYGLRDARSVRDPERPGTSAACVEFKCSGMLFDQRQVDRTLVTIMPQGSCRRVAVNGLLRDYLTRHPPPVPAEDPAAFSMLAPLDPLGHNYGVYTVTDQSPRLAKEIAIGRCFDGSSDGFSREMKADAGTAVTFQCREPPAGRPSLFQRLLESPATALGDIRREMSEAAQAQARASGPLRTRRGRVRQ

B1: FAB15 (Fab, V domains shown)
VH: EVQLLESGGGLVQPGGSLRLSCAASGFSVTSYGVHWIRQAPGKGLEWLGVIWSGGSTDYNAAFISRLTISKDNSKNTVYFQMNSLRAEDTAVYYCARAGDANYDGFAYWGQGTLVTVSS
VL: DIQMTQSPSSLSASVGDRVTITCQASSSVSFMYWYQQRPGKAPRLLIYDTSNLASGVPSRFSGSGSGTSYTFTISSLQPEDIATYYCQQWSTYPLTFGQGTKVEIK
notes: 06F11-V optimization variant; also called Fab version of MAB15
B2: FAB18 (Fab, V domains shown)
VH: B1 VH with A101Y
VL: B1 VL
notes: 06F11-V optimization variant; also called Fab version of MAB18
B3: FAB08 (Fab, V domains shown)
VH: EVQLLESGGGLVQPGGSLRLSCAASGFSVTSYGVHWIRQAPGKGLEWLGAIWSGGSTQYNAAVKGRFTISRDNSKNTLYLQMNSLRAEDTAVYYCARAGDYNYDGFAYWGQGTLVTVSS
VL: B1 VL with S27Q, M32L
notes: 06F11-V optimization variant
B4: FAB01 (Fab, V domains shown)
VH: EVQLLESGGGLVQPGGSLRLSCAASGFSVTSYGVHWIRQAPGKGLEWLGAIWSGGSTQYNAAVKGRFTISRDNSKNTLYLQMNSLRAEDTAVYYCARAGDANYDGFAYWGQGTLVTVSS
VL: B1 VL with S91D, Q99G
notes: 06F11-V optimization variant
B5: FAB02 (Fab, V domains shown)
VH: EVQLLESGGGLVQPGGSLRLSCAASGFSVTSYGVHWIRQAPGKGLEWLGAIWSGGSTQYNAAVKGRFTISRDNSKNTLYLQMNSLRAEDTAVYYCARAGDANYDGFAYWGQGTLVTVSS
VL: B1 VL with S27Q, M32L
notes: 06F11-V optimization variant
B6: FAB04 (Fab, V domains shown)
VH: B1 VH with S28T, G33A, I37V
VL: B1 VL with S91D, Q99G
notes: 06F11-V optimization variant
B7: FAB07 (Fab, V domains shown)
VH: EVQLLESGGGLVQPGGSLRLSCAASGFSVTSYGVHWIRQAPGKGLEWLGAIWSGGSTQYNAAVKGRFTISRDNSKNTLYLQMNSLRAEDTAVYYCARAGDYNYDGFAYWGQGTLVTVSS
VL: B1 VL with S91D, Q99G
notes: 06F11-V optimization variant
B8: FAB17 (Fab, V domains shown)
VH: B1 VH with A101Y
VL: B1 VL with S27Q, M32L
notes: 06F11-V optimization variant; also called Fab version of MAB17
B9: FAB13 (Fab, V domains shown)
VH: B1 VH
VL: B1 VL with S91D, Q99G
notes: 06F11-V optimization variant
B10: FAB09 (Fab, V domains shown)
VH: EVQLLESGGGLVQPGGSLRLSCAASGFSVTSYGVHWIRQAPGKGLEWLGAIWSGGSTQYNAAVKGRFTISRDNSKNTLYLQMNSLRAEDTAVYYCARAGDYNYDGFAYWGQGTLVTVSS
VL: B1 VL
notes: 06F11-V optimization variant
B11: FAB06 (Fab, V domains shown)
VH: B1 VH with S28T, G33A, I37V
VL: B1 VL
notes: 06F11-V optimization variant; also called Fab version of MAB06
B12: FAB12 (Fab, V domains shown)
VH: B1 VH with S28T, G33A, I37V, A101Y
VL: B1 VL
notes: 06F11-V optimization variant
B13: FAB05 (Fab, V domains shown)
VH: B1 VH with S28T, G33A, I37V
VL: B1 VL with S27Q, M32L
notes: 06F11-V optimization variant; also called Fab version of MAB05
B14: FAB03 (Fab, V domains shown)
VH: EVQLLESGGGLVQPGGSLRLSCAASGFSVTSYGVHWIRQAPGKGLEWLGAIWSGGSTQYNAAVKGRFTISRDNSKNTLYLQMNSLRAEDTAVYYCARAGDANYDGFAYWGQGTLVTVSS
VL: B1 VL
notes: 06F11-V optimization variant
B15: FAB14 (Fab, V domains shown)
VH: B1 VH
VL: B1 VL with S27Q, M32L
notes: 06F11-V optimization variant; also called Fab version of MAB14
B16: FAB11 (Fab, V domains shown)
VH: B1 VH with S28T, G33A, I37V, A101Y
VL: B1 VL with S27Q, M32L
notes: 06F11-V optimization variant
B17: FAB16 (Fab, V domains shown)
VH: B1 VH with A101Y
VL: B1 VL with S91D, Q99G
notes: 06F11-V optimization variant
B18: FAB10 (Fab, V domains shown)
VH: B1 VH with S28T, G33A, I37V, A101Y
VL: B1 VL with S91D, Q99G
notes: 06F11-V optimization variant
B19: MAB14 (antibody, human IgG1, V domains shown)
VH: B1 VH
VL: B1 VL with S27Q, M32L
notes: also called clone 14
B20: MAB17 (antibody, human IgG1, V domains shown)
VH: B1 VH with A101Y
VL: B1 VL with S27Q, M32L
notes: also called clone 17

What follows are binders tested against T1, Human CD122 His tagged (assay: Biacore SPR, Fab).

Kd [nM] | Binder
5.54 | B1
11.5 | B2
41.2 | B3
33.6 | B4
50.6 | B5
13.8 | B6
30.1 | B7
10.7 | B8
5.37 | B9
72.5 | B10
8.04 | B11
21.8 | B12
10.2 | B13
38.6 | B14
4.34 | B15
17.7 | B16
8.56 | B17

These binders were tested against T2, Rhesus CD122 His tag (assay: Biacore SPR, Fab).

Kd [nM] | Binder
4.47 | B1
8.55 | B2
30.7 | B3
14.4 | B4
22.5 | B5
9.26 | B6
16.3 | B7
7.93 | B8
3.25 | B9
36.5 | B10
9.78 | B11
19.5 | B12
8.86 | B13
20.6 | B14
3.52 | B15
15.9 | B16
5.04 | B17
16.7 | B18

These binders were tested against T1, Human CD122 His tagged (assay: Biacore, Fab affinity and kinetics on hCD122).

Kd [nM] | koff [s⁻¹] | kon [M⁻¹ s⁻¹] | Binder
5.5 | 0.0034 | 610000 | B1
11.5 | 0.0039 | 340000 | B2
10.7 | 0.0046 | 430000 | B8
8 | 0.0044 | 540000 | B11
10.2 | 0.0058 | 570000 | B13
4.3 | 0.0037 | 850000 | B15

These binders were tested against T3, Human BCAM protein (assay: binding ELISA on human BCAM protein, IgG at log10 about 1.1 to 3.0 nM, OD450nm).

binding result | Binder
binds | B19
binds | B20

Each binder was assayed against T4, Human CILP2 protein (assay: BIACORE SPR, Fab at 62.5, 125, 250, 500 and 1000 nM on human CILP2 protein; Rmax).

binding result | Binder
no binding (tested: 1000 nM) | B1
no binding (tested: 1000 nM) | B2
no binding (tested: 1000 nM) | B8
no binding (tested: 1000 nM) | B11
no binding (tested: 1000 nM) | B13
no binding (tested: 1000 nM) | B15

Each binder was assayed against T5, Human neudesin protein (human, UniProt Q9UMX5 32-172) (assay: BIACORE SPR, Fab at 62.5, 125, 250, 500 and 1000 nM on human neudesin protein; Rmax).
T5 construct: also called NENF
T5 sequence (Q9UMX5 32-172 limits assumed): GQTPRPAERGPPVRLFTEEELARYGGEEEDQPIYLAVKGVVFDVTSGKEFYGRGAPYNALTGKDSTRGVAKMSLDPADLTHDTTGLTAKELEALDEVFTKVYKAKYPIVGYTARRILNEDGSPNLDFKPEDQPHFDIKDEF

binding result | Binder
no binding (tested: 1000 nM) | B1
no binding (tested: 1000 nM) | B2
no binding (tested: 1000 nM) | B8
no binding (tested: 1000 nM) | B11
no binding (tested: 1000 nM) | B13
no binding (tested: 1000 nM) | B15
